The values that follow come from patent EP4733314A1, “NOVEL BISPECIFIC FUSION PROTEIN AND USE THEREOF” (Slbigen Inc., priority 2023, dated 2024).

Assay [1] in a line: Intestinal leakage (serum FITC-Dextran fluorescence) in MASH model (CD-HFD + DSS). Conditions: 55 nmol/kg twice daily s.c. The assay is classed as in vivo, C57BL/6J mice. The source says:
(§1) Subsequently, the present inventors investigated the weight reduction and regulation of intestinal leakage in a metabolic dysfunction-associated steatohepatitis (MASH) animal model with intestinal leakage, using Liraglutide as a comparative control and MG12-8 according to one embodiment of the present invention. Specifically, twenty-week-old male C57BL/6J mice were obtained, and overweight was induced by feeding a choline-deficient high-fat diet (CD-HFD). In addition, intestinal leakage was induced by cyclically administering dextran sulfate sodium (DSS) at a low concentration of 1% for 7 days followed by 10 days of regular drinking water. After two weeks from the initiation of CD-HFD feeding, Liraglutide and MG12-8 were subcutaneously administered at their respective prescribed dosages and dosing intervals. Two weeks after the first administration, body weight was measured (FIG. 4a). To assess intestinal leakage, a fluorescein isothiocyanate (FITC)-Dextran (4 kDa) solution was administered orally 4 hours before sacrifice, after which the mice were fasted. The amount of FITC-Dextran translocated into the blood was then evaluated by measuring fluorescence intensity in serum.

Assay [2] in a line: Body weight in MASH model with intestinal leakage (CD-HFD + DSS). It counts as in vivo, C57BL/6J mice. To be noted: 55 nmol/kg twice daily s.c., two weeks after first administration.
From the text: as §1

Assay [3] has as its target GLP-2 receptor. Nature of the assay: cell-based or functional assay.
The target of assay [4] is GLP-1 receptor. The assay is described as follows: cell-based or functional assay.
A short description of assay [5]: Histological analysis of pancreatic tissue of db/db mice. Conditions: pancreas after 12 weeks of dosing. The assay is classed as in vivo. The source says: Subsequently, after completion of the above experiment, the present inventors sacrificed the experimental animals and performed histological analysis of pancreatic tissues. Specifically, after euthanizing the animals under general anesthesia at the end of the animal study, the pancreas was excised, fixed in 4% paraformaldehyde, embedded in paraffin, sectioned transversely into 5 µm slices using a microtome, and then subjected to staining either with insulin alone, double staining with insulin and glucagon, or double staining with insulin and Ki-67. All double staining was carried out using fluorescent-labeled antibodies, followed by imaging with a confocal laser microscope.

The nature of assay [6]: Anti-diabetic effect in db/db mice (blood glucose, HbA1c, insulin, HOMA-IR, HOMA-β). The assay is classed as in vivo. To be noted: 15 nmol/kg s.c. every three days for 12 weeks. As to the method:
Specifically, 14-week-old male db/db mice (Janvier Labs, France) were subcutaneously injected every three days for 12 weeks with designated doses of Semaglutide, Tirzepatide, or the bispecific fusion protein MG12-8 according to one embodiment of the present invention. Subsequently, non-fasting blood glucose levels were measured at 25-day intervals (on days 25, 50, and 75 of the experiment), and HbA1c levels were measured monthly up to three months. Additionally, at the end of the experiment, fasting blood glucose and serum insulin concentrations were determined, and HOMA-IR and HOMA-β scores were calculated.

For “Liraglutide (HAEGTFTSDVSSYLEGQAAKEFIAWLVRGRG; REGION 1..31: note = Liraglutide) [GLP-1 receptor agonist marketed by Novo Nordisk as Victoza for the treatment of type 2 diabetes and obesity]”, the “intestinal leakage suppression activity (serum FITC-Dextran)” value in assay [1] is “did not exhibit intestinal leakage suppression activity relative to the control”. Besides, in assay [2], the “body weight compared with vehicle” value is listed as “reduced body weights compared with the vehicle-administered group”.

For the molecule wild-type GLP-2 (human GLP-2 peptide), the GLP-2 activity, EC50 (nM); cAMP bioluminescence in GLP-2R-expressing CHO-K1 cells in assay [3] came to 1.18 nM.

For “wild-type GLP-1 (human GLP-1 peptide) (from UniProt P01275 21-180)”, in assay [4], the GLP-1 activity (Set1), EC50 (nM); cAMP bioluminescence in GLP-1R-expressing CHO-K1 cells was 0.69 nM; the GLP-1 activity (Set1), Relative activity compared with hGLP-1 peptide (%) was found to be 100%; the GLP-1 activity (Set2), EC50 (nM); cAMP bioluminescence in GLP-1R-expressing CHO-K1 cells was determined as 0.89 nM; the GLP-1 activity (Set2), Relative activity compared with hGLP-1 peptide (%) is 100%.

For the molecule `CC[C@H](C)[C@H](NC(=O)[C@H](CC(C)C)NC(=O)[C@H](Cc1c[nH]c2ccccc12)NC(=O)[C@H](CCC(N)=O)NC(=O)[C@@H](NC(=O)[C@H](Cc1ccccc1)NC(=O)[C@H](C)NC(=O)[C@H](CCCCNC(=O)COCCOCCNC(=O)COCCOCCNC(=O)CC[C@H](NC(=O)CCCCCCCCCCCCCCCCCCC(=O)O)C(=O)O)NC(=O)[C@H](CCC(N)=O)NC(=O)[C@H](C)NC(=O)[C@@H](NC(=O)[C@H](CCCCN)NC(=O)[C@H](CC(=O)O)NC(=O)[C@H](CC(C)C)NC(=O)C(C)(C)NC(=O)[C@@H](NC(=O)[C@H](CO)NC(=O)[C@H](Cc1ccc(O)cc1)NC(=O)[C@H](CC(=O)O)NC(=O)[C@H](CO)NC(=O)[C@@H](NC(=O)[C@H](Cc1ccccc1)NC(=O)[C@@H](NC(=O)CNC(=O)[C@H](CCC(=O)O)NC(=O)C(C)(C)NC(=O)[C@@H](N)Cc1ccc(O)cc1)[C@@H](C)O)[C@@H](C)O)[C@@H](C)CC)[C@@H](C)CC)C(C)C)C(=O)N[C@@H](C)C(=O)NCC(=O)NCC(=O)N1CCC[C@H]1C(=O)N[C@@H](CO)C(=O)N[C@@H](CO)C(=O)NCC(=O)N[C@@H](C)C(=O)N1CCC[C@H]1C(=O)N1CCC[C@H]1C(=O)N1CCC[C@H]1C(=O)N[C@@H](CO)C(N)=O` [Tirzepatide], the “number of Ki-67-positive cells per 10,000 µm^2” value in assay [5] was “showed no improvement compared with the control group”. The “insulin resistance index (HOMA-IR)” value in assay [6] is greater than 40.

B1: MG12-6 (Fc fusion)
chain 1: HGEGTFTSDVSSYLEGQAAKEFIAWLVKGGPSSGAPPPSGGGGSGGGGSGGGGSEKEKEEQEERTHTCPPCPSHTQPLGVFLFPPKPKDQLMISRTPEVTCVVVDVSQEDPEVQFNWYVDGVEVHNAKTKPREEQFNSTYRVVSVLTVLHQDWLNGKEYKCKVSNKGLPSSIEKTISKAKGQPREPQVYTLPPCQEEMTKNQVSLWCLVKGFYPSDIAVEWESNGQPENNYKTTPPVLDSDGSFFLYSRLTVDKSRWQEGNVFSCSVLHEALHNHYTQKSLSLSLGK
chain 2: HGDGSFSDEMNTILDNLAARDFINWLIQTKITDGGGGGSGGGGSGGGGSAKNTTAPATTRNTTRGGEEKKKEKEKEEQEERTHTCPPCPSHTQPLGVFLFPPKPKDQLMISRTPEVTCVVVDVSQEDPEVQFNWYVDGVEVHNAKTKPREEQFNSTYRVVSVLTVLHQDWLNGKEYKCKVSNKGLPSSIEKTISKAKGQPREPQVCTLPPSQEEMTKNQVSLSCAVKGFYPSDIAVEWESNGQPENNYKTTPPVLDSDGSFFLVSRLTVDKSRWQEGNVFSCSVLHEALHNHYTQKSLSLSLGK
For B1, in assay [4], the GLP-1 activity (Set1), EC50 (nM); cAMP bioluminescence in GLP-1R-expressing CHO-K1 cells is 1.57 nM; the GLP-1 activity (Set1), Relative activity compared with hGLP-1 peptide (%) worked out at 44%; the GLP-1 activity (Set2), EC50 (nM); cAMP bioluminescence in GLP-1R-expressing CHO-K1 cells came to 1.12 nM; the GLP-1 activity (Set2), Relative activity compared with hGLP-1 peptide (%) is 79%. Besides, in assay [3], the GLP-2 activity, EC50 (nM); cAMP bioluminescence in GLP-2R-expressing CHO-K1 cells was found to be 2.42 nM and the GLP-2 activity, Relative activity compared with hGLP-2 peptide (%) was found to be 49%.

B2: MG12-7 (Fc fusion)
chain 1: HGEGTFTSDVSSYLEGQAAKEFIAWLVKGGPSSGAPPPSGGGGSGGGGSGGGGSAKNTTAPATTRNTTRGGEEKKKEKEKEEQEERTHTCPPCPSHTQPLGVFLFPPKPKDQLMISRTPEVTCVVVDVSQEDPEVQFNWYVDGVEVHNAKTKPREEQFNSTYRVVSVLTVLHQDWLNGKEYKCKVSNKGLPSSIEKTISKAKGQPREPQVYTLPPCQEEMTKNQVSLWCLVKGFYPSDIAVEWESNGQPENNYKTTPPVLDSDGSFFLYSRLTVDKSRWQEGNVFSCSVLHEALHNHYTQKSLSLSLGK
chain 2: HGDGSFSDEMNTILDGQAARDFINWLIQTKITDGGGGSGGGGSGGGGSEPKSSDKTHTCPPCPSHTQPLGVFLFPPKPKDQLMISRTPEVTCVVVDVSQEDPEVQFNWYVDGVEVHNAKTKPREEQFNSTYRVVSVLTVLHQDWLNGKEYKCKVSNKGLPSSIEKTISKAKGQPREPQVCTLPPSQEEMTKNQVSLSCAVKGFYPSDIAVEWESNGQPENNYKTTPPVLDSDGSFFLVSRLTVDKSRWQEGNVFSCSVLHEALHNHYTQKSLSLSLGK
Regarding B2, in assay [4], the GLP-1 activity (Set1), EC50 (nM); cAMP bioluminescence in GLP-1R-expressing CHO-K1 cells worked out at 0.35 nM; the GLP-1 activity (Set1), Relative activity compared with hGLP-1 peptide (%) was 194%; the GLP-1 activity (Set2), EC50 (nM); cAMP bioluminescence in GLP-1R-expressing CHO-K1 cells came to 0.57 nM; the GLP-1 activity (Set2), Relative activity compared with hGLP-1 peptide (%) stood at 156%. In assay [3], this molecule returned a GLP-2 activity, EC50 (nM); cAMP bioluminescence in GLP-2R-expressing CHO-K1 cells of 50.8 nM and a GLP-2 activity, Relative activity compared with hGLP-2 peptide (%) of 2%.

B3: MG12-8 (Fc fusion)
chain 1: HGEGTFTSDVSSYLEGQAAKEFIAWLVKGGPSSGAPPPSGGGGSGGGGSGGGGSGGGGSGGGGSGGGGSHGEGTFTSDVSSYLEGQAAKEFIAWLVKGGPSSGAPPPSGGGGSGGGGSGGGGSEPKSSDKTHTCPPCPSHTQPLGVFLFPPKPKDQLMISRTPEVTCVVVDVSQEDPEVQFNWYVDGVEVHNAKTKPREEQFNSTYRVVSVLTVLHQDWLNGKEYKCKVSNKGLPSSIEKTISKAKGQPREPQVYTLPPCQEEMTKNQVSLWCLVKGFYPSDIAVEWESNGQPENNYKTTPPVLDSDGSFFLYSRLTVDKSRWQEGNVFSCSVLHEALHNHYTQKSLSLSLGK
chain 2: HGDGSFSDEMNTILDGQAARDFINWLIQTKITDGGGGSGGGGSGGGGSEPKSSDKTHTCPPCPSHTQPLGVFLFPPKPKDQLMISRTPEVTCVVVDVSQEDPEVQFNWYVDGVEVHNAKTKPREEQFNSTYRVVSVLTVLHQDWLNGKEYKCKVSNKGLPSSIEKTISKAKGQPREPQVCTLPPSQEEMTKNQVSLSCAVKGFYPSDIAVEWESNGQPENNYKTTPPVLDSDGSFFLVSRLTVDKSRWQEGNVFSCSVLHEALHNHYTQKSLSLSLGK
As to B3, in assay [4], the GLP-1 activity (Set1), EC50 (nM); cAMP bioluminescence in GLP-1R-expressing CHO-K1 cells was determined as 0.81 nM; the GLP-1 activity (Set1), Relative activity compared with hGLP-1 peptide (%) stood at 85%; the GLP-1 activity (Set2), EC50 (nM); cAMP bioluminescence in GLP-1R-expressing CHO-K1 cells came out at 0.71 nM; the GLP-1 activity (Set2), Relative activity compared with hGLP-1 peptide (%) was determined as 125%. In addition, in assay [4], the relative GLP-1 activity, MG12-8 Sample #1; cAMP bioluminescence in HEK-GLP-1R cells was 100%; the relative GLP-1 activity, MG12-8 Sample #2; cAMP bioluminescence in HEK-GLP-1R cells amounted to 200%; the relative GLP-1 activity, MG12-8 Sample #3; cAMP bioluminescence in HEK-GLP-1R cells was 300%; the relative GLP-1 activity, MG12-8 Sample #4; cAMP bioluminescence in HEK-GLP-1R cells is 400%. In assay [3], this molecule registered a GLP-2 activity, EC50 (nM); cAMP bioluminescence in GLP-2R-expressing CHO-K1 cells of 19 nM and a GLP-2 activity, Relative activity compared with hGLP-2 peptide (%) of 6%.
